Kd data for one substance are collected here from publication PMC7859323.

Broadly, the Kd is the equilibrium constant for the complex coming apart. Higher therefore signals weaker binding.

The target in the assay is Gla domainless factor VIIa (human) (UniProt P08709). Nature of the assay: titration of enzyme activity (rate of FX activation by des Gla-FVIIa).

Where “and” joins values, the source holds several entries; their conditions need not be identical. Equal values may be shown once.

UniProt P08709, sequence (P08709 21-466, chain 1 of 2): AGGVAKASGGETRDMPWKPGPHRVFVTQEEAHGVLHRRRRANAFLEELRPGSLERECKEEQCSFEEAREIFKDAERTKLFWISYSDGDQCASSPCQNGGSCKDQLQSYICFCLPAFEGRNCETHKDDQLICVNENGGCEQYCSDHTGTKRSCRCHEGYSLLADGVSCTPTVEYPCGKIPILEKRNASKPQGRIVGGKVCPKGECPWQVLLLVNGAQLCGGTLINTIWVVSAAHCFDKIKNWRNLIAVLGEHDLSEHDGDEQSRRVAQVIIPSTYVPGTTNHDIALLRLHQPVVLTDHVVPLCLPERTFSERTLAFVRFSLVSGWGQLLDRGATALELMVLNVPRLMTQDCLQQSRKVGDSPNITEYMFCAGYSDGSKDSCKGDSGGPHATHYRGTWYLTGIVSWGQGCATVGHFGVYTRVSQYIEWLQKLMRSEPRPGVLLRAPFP
UniProt P08709, sequence (P08709 213-466, chain 2 of 2): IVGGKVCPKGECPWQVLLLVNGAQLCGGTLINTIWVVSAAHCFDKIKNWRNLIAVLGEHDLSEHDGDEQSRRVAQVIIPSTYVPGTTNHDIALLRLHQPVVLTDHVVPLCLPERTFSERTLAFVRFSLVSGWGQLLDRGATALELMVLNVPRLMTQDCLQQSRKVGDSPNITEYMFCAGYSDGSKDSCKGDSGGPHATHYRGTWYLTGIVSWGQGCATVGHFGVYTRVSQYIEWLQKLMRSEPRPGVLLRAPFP

Regarding “recombinant soluble tissue factor (from UniProt P13726 33-251) (domain or fragment)”, the Kd is 5 nM and 2.7 nM.
